According to PMC2810376 (The EMBO Journal, 2010):

Assays:
[1] = target: Rpb2, second largest subunit of RNA polymerase II (S. cerevisiae, UniProt P08518 1-1224); experiment: cross-linking
[2] = target: Rpb1, subunit of RNA polymerase II (S. cerevisiae, UniProt P04050 1-1733); experiment: cross-linking
Rpb1, subunit of RNA polymerase II, sequence (P04050 whole entry): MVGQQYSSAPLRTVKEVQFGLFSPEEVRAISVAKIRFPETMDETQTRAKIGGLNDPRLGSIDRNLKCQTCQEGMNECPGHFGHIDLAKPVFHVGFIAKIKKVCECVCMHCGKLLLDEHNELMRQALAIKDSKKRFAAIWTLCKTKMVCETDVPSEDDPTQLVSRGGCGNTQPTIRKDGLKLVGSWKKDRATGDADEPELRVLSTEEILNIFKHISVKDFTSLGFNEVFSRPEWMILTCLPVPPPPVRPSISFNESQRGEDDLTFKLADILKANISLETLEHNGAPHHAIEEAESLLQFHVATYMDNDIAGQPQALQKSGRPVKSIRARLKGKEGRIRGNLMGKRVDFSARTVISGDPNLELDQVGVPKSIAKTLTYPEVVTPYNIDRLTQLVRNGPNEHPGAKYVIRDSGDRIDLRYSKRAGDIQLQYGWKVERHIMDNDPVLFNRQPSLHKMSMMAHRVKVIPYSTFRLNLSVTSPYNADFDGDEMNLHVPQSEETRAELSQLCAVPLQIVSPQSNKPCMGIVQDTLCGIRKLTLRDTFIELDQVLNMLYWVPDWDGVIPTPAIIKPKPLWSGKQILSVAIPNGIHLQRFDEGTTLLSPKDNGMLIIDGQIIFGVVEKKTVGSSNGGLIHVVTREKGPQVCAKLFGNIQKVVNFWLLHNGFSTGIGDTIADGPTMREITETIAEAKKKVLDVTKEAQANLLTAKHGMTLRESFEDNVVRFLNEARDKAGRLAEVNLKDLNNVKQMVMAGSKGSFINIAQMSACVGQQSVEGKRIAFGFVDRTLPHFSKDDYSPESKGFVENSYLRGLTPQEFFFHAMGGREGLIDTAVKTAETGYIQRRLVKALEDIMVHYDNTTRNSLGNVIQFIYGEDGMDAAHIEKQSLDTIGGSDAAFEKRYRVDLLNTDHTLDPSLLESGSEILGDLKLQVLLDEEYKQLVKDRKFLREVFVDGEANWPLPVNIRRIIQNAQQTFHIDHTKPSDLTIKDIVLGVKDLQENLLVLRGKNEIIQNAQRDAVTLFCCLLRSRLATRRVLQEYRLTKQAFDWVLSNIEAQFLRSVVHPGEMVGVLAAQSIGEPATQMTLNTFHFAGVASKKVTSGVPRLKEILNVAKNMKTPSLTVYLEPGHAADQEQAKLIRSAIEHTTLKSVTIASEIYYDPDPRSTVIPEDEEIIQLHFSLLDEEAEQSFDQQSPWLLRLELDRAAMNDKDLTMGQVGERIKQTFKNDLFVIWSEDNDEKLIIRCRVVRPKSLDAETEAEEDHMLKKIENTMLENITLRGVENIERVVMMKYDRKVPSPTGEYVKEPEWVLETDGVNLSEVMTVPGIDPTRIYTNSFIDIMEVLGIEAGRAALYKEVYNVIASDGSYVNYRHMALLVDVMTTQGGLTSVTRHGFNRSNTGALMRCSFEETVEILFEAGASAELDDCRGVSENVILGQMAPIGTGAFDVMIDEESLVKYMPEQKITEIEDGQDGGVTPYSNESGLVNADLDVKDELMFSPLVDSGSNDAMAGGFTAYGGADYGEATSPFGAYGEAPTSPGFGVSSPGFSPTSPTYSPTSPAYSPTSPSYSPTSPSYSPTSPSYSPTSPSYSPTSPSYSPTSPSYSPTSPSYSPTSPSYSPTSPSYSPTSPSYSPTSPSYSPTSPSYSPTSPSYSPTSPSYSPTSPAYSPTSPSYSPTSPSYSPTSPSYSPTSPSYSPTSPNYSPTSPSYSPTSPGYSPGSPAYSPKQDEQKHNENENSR

Rpb2, second largest subunit of RNA polymerase II, sequence (P08518 whole entry): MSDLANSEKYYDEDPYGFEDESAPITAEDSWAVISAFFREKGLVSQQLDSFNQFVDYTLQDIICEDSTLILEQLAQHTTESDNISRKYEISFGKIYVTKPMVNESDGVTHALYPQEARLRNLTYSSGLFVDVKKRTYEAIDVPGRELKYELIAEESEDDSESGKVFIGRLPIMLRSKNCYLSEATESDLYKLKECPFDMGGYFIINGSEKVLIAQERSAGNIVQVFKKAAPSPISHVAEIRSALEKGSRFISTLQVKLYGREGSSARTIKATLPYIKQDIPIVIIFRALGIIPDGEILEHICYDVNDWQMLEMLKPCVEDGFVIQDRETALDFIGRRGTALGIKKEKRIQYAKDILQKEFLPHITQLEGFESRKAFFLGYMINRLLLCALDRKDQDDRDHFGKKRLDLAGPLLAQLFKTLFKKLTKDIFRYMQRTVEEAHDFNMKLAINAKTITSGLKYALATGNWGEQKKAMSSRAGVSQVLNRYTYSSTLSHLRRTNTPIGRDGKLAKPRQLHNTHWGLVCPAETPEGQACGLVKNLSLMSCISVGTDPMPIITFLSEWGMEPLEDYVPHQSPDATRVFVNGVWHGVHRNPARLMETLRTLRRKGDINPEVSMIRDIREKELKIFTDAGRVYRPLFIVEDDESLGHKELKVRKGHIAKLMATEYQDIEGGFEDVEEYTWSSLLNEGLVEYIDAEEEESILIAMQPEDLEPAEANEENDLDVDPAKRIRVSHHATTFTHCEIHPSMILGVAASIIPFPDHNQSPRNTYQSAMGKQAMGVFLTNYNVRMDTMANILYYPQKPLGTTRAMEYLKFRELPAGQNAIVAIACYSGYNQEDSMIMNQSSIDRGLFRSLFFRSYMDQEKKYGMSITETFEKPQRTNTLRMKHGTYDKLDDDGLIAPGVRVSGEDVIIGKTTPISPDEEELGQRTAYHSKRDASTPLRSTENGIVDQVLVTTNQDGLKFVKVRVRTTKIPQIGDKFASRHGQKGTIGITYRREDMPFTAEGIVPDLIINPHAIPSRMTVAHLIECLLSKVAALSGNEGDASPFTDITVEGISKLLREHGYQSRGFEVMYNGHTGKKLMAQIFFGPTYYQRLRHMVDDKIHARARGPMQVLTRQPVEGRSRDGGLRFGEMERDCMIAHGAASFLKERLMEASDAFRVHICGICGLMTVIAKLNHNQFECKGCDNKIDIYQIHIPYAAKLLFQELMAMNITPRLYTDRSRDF

Row | Binder | binding result [1] | binding result [2]
1 | Tfg1, subunit of yeast TFIIF (natural protein, S. cerevisiae, UniProt P41895 1-735, looked up) MSRRNPPGSRNGGGPTNASPFIKRDRMRRNFLRMRMGQNGSNSSSPGVPNGDNSRGSLVKKDDPEYAEEREKMLLQIGVEADAGRSNVKVKDEDPNEYNEFPLRAIPKEDLENMRTHLLKFQSKKKINPVTDFHLPVRLHRKDTRNLQFQLTRAEIVQRQKEISEYKKKAEQERSTPNSGGMNKSGTVSLNNTVKDGSQTPTVDSVTKDNTANGVNSSIPTVTGSSVPPASPTTVSAVESNGLSNGSTSAANGLDGNASTANLANGRPLVTKLEDAGPAEDPTKVGMVKYDGKEVTNEPEFEEGTMDPLADVAPDGGGRAKRGNLRRKTRQLKVLDENAKKLRFEEFYPWVMEDFDGYNTWVGSYEAGNSDSYVLLSVEDDGSFTMIPADKVYKFTARNKYATLTIDEAEKRMDKKSGEVPRWLMKHLDNIGTTTTRYDRTRRKLKAVADQQAMDEDDRDDNSEVELDYDEEFADDEEAPIIDGNEQENKESEQRIKKEMLQANAMGLRDEEAPSENEEDELFGEKKIDEDGERIKKALQKTELAALYSSDENEINPYLSESDIENKENESPVKKEEDSDTLSKSKRSSPKKQQKKATNAHVHKEPTLRVKSIKNCVIILKGDKKILKSFPEGEWNPQTTKAVDSSNNASNTVPSPIKQEEGLNSTVAEREETPAPTITEKDIIEAIGDGKVNIKEFGKFIRRKYPGAENKKLMFAIVKKLCRKVGNDHMELKKE | binds | binds
2 | Tfg2, subunit of yeast TFIIF, with a C-terminal TAP tag (natural protein, S. cerevisiae, UniProt P41896 1-400, looked up) MSSGSAGAPALSNNSTNSVAKEKSGNISGDEYLSQEEEVFDGNDIENNETKVYEESLDLDLERSNRQVWLVRLPMFLAEKWRDRNNLHGQELGKIRINKDGSKITLLLNENDNDSIPHEYDLELTKKVVENEYVFTEQNLKKYQQRKKELEADPEKQRQAYLKKQEREEELKKKQQQQKRRNNRKKFNHRVMTDRDGRDRYIPYVKTIPKKTAIVGTVCHECQVMPSMNDPNYHKIVEQRRNIVKLNNKERITTLDETVGVTMSHTGMSMRSDNSNFLKVGREKAKSNIKSIRMPKKEILDYLFKLFDEYDYWSLKGLKERTRQPEAHLKECLDKVATLVKKGPYAFKYTLRPEYKKLKEEERKATLGELADEQTGSAGDNAQGDAEADLEDEIEMEDVV | binds | 
